Source: patent US20190038796A1

Target: EGF-MMP (recombinant epidermal growth factor with N-terminal PLP reactive site AKT, polyhistidine tag and MMP cleavage site VPLSLYSG)
Assay: cell-based or functional assay

EGF-MMP (recombinant epidermal growth factor with N-terminal PLP reactive site AKT, polyhistidine tag and MMP cleavage site VPLSLYSG), sequence (chain, as listed by the source limits assumed): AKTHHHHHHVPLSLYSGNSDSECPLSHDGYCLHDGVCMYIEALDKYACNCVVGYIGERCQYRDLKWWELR

EGF released from the conjugated PCL fiber mat after 4 hours of incubation with MMP-9 (ELISA): 20 ng/mg | EGF released from the conjugated PCL fiber mat over the first 10 minutes after the enzyme was added (ELISA) (ng EGF/mg PCL): 11
Substance: Recombinant, human pro-MMP-9 expressed in CHO cells, activated with amino-phenyl mercuric acetate (APMA) (from UniProt P14780 20-707) (enzyme)
